Measured values from ChEMBL document CHEMBL2074044, “Two distinct mechanisms for bilirubin glucuronide transport by rat bile canalicular membrane vesicles. Demonstration of defective ATP-dependent transport in rats (TR-) with inherited conjugated hyperbilirubinemia” (J Clin Invest, 1992).

Substrate: C=CC1=C(C)/C(=C/c2[nH]c(Cc3[nH]c(/C=C4\NC(=O)C(C)=C4C=C)c(C)c3CCC(=O)O[C@@H]3O[C@@H](C(=O)O)[C@H](O)[C@@H](O)[C@@H]3O)c(CCC(=O)O[C@@H]3O[C@H](C(=O)O)[C@H](O)[C@H](O)[C@@H]3O)c2C)NC1=O
Assay: TP_TRANSPORTER: uptake in bile canalicular membranes from Wistar rat
Format: functional, cell membranes, Bile canalicular membrane

B1: ATP-binding cassette sub-family C member 2 (Rattus norvegicus) (protein)
chain: MDKFCNSTFWDLSLLESPEADLPLCFEQTVLVWIPLGFLWLLAPWQLYSVYRSRTKRSSITKFYLAKQVFVVFLLILAAIDLSLALTEDTGQATVPPVRYTNPILYLCTWLLVLAVQHSRQWCVRKNSWFLSLFWILSVLCGVFQFQTLIRALLKDSKSNMAYSYLFFVSYGFQIVLLILTAFSGPSDSTQTPSVTASFLSSITFSWYDRTVLKGYKHPLTLEDVWDIDEGFKTRSVTSKFEAAMTKDLQKARQAFQRRLQKSQRKPEATLHGLNKKQSQSQDVLVLEEAKKKSEKTTKDYPKSWLIKSLFKTFHVVILKSFILKLIHDLLVFLNPQLLKLLIGFVKSSNSYVWFGYICAILMFAVTLIQSFCLQSYFQHCFVLGMCVRTTVMSSIYKKALTLSNLARKQYTIGETVNLMSVDSQKLMDATNYMQLVWSSVIQITLSIFFLWRELGPSILAGVGVMVLLIPVNGVLATKIRNIQVQNMKNKDKRLKIMNEILSGIKILKYFAWEPSFQEQVQGIRKKELKNLLRFGQLQSLLIFILQITPILVSVVTFSVYVLVDSANVLNAEKAFTSITLFNILRFPLSMLPMVTSSILQASVSVDRLERYLGGDDLDTSAIRRVSNFDKAVKFSEASFTWDPDLEATIQDVNLDIKPGQLVAVVGTVGSGKSSLVSAMLGEMENVHGHITIQGSTAYVPQQSWIQNGTIKDNILFGSEYNEKKYQQVLKACALLPDLEILPGGDMAEIGEKGINLSGGQKQRVSLARAAYQDADIYILDDPLSAVDAHVGKHIFNKVVGPNGLLAGKTRIFVTHGIHFLPQVDEIVVLGKGTILEKGSYRDLLDKKGVFARNWKTFMKHSGPEGEATVNNDSEAEDDDDGLIPTMEEIPEDAASLAMRRENSLRRTLSRSSRSSSRRGKSLKNSLKIKNVNVLKEKEKEVEGQKLIKKEFVETGKVKFSIYLKYLQAVGWWSILFIILFYGLNNVAFIGSNLWLSAWTSDSDNLNGTNNSSSHRDMRIGVFGALGLAQGICLLISTLWSIYACRNASKALHGQLLTNILRAPMRFFDTTPTGRIVNRFSGDISTVDDLLPQTLRSWMMCFFGIAGTLVMICMATPVFAIIIIPLSILYISVQVFYVATSRQLRRLDSVTKSPIYSHFSETVTGLPIIRAFEHQQRFLAWNEKQIDINQKCVFSWITSNRWLAIRLELVGNLVVFCSALLLVIYRKTLTGDVVGFVLSNALNITQTLNWLVRMTSEAETNIVAVERISEYINVENEAPWVTDKRPPADWPRHGEIQFNNYQVRYRPELDLVLKGITCNIKSGEKVGVVGRTGAGKSSLTNCLFRILESAGGQIIIDGIDVASIGLHDLRERLTIIPQDPILFSGSLRMNLDPFNKYSDEEVWRALELAHLRSFVSGLQLGLLSEVTEGGDNLSIGQRQLLCLGRAVLRKSKILVLDEATAAVDLETDSLIQTTIRKEFSQCTVITIAHRLHTIMDSDKIMVLDNGKIVEYGSPEELLSNRGSFYLMAKEAGIENVNHTEL
Km: 71 µM
